# Experimental data as given in the Immune Epitope Database (IEDB).
# How the values were obtained:
# Conditions in all cases: source organism: Human immunodeficiency virus type 1 (JRCSF ISOLATE)
# HLA-A*03:01 [1] = experiment: IEDB peptide-MHC binding, purified MHC/competitive/radioactivity; ≥ and ≤ were set here for values at or beyond the usual limits of such assays
# HLA-A*11:01 [2] = experiment: as above
# HLA-A*03:01 [3] = experiment: IEDB peptide-MHC binding, purified MHC/competitive/radioactivity; filed as Kd, often an IC50 or EC50 that approximates it; ≥ and ≤ were set here for values at or beyond the usual limits of such assays
# HLA-A*11:01 [4] = experiment: as above
Sequence,IC50 (HLA-A*03:01 [1]),IC50 (HLA-A*11:01 [2]),Kd (HLA-A*03:01 [3]),Kd (HLA-A*11:01 [4])
AIFQSSMTK,10 nM,,,
AVFIHNFKR,64.7 nM,3.3 nM,,
KIQNFRVYYR,344 nM,,,
MAVFIHNFK,647 nM,20 nM,,
MTKILEPFR,,,13800 nM,
MVHQAISPR,61.1 nM,89.6 nM,,
NTPVFAIKK,333 nM,100 nM,,
QMAVFIHNFK,9.2 nM,,,
QMVHQAISPR,423 nM,,,6000 nM
TIKIGGQLK,40.7 nM,182 nM,,
TLFCASDAK,118 nM,,,
TTLFCASDAK,120 nM,27.3 nM,,
YLAWVPAHK,143 nM,,,
